Reference: patent US20090264360A1

Target: lamprey GnRH receptor (sea lamprey (Petromyzon marinus))
Assay: cell-based or functional assay

fold difference of EC50 against lamprey GnRH-I (IP and cAMP) (fold lower than lamprey GnRH-I): 40 to 50
Substance: lamprey GnRH-III (from UniProt P30948 1-10) (peptide)
